Measured values published in patent US20250296986A1.

Legend:
[1] = target: human FcγRIIa (R131 allele) (human) (UniProt P12318); experiment: compared with fucosylated wild-type human IgG1; MSD per FIGS. 10A-10C
[2] = target: human FcγRIIa (H131 allele) (human) (UniProt P12318); experiment: as above
[3] = target: human C1q (human) (UniProt P02745); experiment: C1q binding assay (FIG. 15: antibody Fc captured on Octet sensor, human C1q in solution)
[4] = target: human FcγRIIb (human) (UniProt P31994); experiment: compared with fucosylated wild-type human IgG1; MSD per FIGS. 10A-10C
Chain of human FcγRIIb (human) (P31994 43-217 limits assumed): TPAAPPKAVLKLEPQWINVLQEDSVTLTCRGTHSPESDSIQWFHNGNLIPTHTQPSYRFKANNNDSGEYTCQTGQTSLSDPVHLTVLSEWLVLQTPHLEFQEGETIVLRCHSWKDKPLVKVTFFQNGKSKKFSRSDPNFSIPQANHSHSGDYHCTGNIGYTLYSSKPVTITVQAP

Chain of human FcγRIIa (H131 allele) (human) (P12318 34-218 limits assumed): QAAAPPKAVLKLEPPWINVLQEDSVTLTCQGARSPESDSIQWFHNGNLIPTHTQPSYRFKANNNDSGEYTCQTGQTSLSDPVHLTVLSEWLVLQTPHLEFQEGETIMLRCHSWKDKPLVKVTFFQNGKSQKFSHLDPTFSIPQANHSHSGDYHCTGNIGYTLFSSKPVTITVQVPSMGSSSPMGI
Chain of human FcγRIIa (R131 allele) (human) (P12318 34-218 H167R limits assumed): as the sequence (P12318 34-218 limits assumed) above, with H134R counted along it
Chain of human C1q (human) (P02745 23-245 limits assumed, chain 1 of 3): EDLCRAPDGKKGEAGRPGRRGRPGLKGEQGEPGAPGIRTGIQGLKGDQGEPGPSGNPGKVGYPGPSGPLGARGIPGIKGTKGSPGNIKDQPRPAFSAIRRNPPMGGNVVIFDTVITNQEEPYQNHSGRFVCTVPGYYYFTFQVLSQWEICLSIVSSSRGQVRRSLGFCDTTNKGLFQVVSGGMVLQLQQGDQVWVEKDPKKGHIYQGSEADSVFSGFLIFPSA
Chain of human C1q (human) (P02746 28-253 limits assumed, chain 2 of 3, further chain): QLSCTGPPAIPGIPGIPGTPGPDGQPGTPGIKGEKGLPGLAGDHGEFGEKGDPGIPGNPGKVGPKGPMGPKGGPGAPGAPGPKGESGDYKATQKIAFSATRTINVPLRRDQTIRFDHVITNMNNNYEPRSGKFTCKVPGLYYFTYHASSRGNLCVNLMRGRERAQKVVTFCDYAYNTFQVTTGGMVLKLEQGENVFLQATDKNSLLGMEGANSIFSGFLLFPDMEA
Chain of human C1q (human) (P02747 29-245 limits assumed, chain 3 of 3, further chain): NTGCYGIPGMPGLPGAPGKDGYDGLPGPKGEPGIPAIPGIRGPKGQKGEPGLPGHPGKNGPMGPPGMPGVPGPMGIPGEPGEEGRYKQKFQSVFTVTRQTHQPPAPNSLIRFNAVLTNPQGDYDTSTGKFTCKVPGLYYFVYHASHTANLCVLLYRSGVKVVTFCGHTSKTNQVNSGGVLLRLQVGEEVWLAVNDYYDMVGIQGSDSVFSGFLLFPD

Substance	fold-change in binding vs fucosylated wild-type human IgG1 [1] [fold]	fold-change in binding vs fucosylated wild-type human IgG1 [2] [fold]	C1q binding relative to reference IgG1 antibody bearing M428L and N434S mutations only [3]	fold-change in binding vs fucosylated wild-type human IgG1 [4] [fold]
G236A_Y300L (antibody)	> 4	> 18	–	–
G236A_R292P_Y300L (antibody)	> 2.7	> 14	–	–
afucosylated Fc variant antibodies bearing the G236A ("GA") mutation (antibody)	–	–	0.3 fold (×)	–
G236S_G420V_G446E_L309T (antibody)	–	–	–	< 0.5
G236A_R292P (antibody)	–	–	–	< 0.5
